Reference: article PMC9563052

Target: fibrinogen γ-chain C-terminal residues 390-411 fused to GST
Test: ELISA; ligand (γC390-411 or γC151-411) coated, soluble αIIbβ3 (1 µg/mL) pre-incubated with chemokine (CCL5, CXCL12 or CX3CL1) for 10 min, then 1 h at room temperature in HEPES-Tyrodes buffer with 1 mM CaCl2

With “soluble recombinant integrin αIIbβ3 (from UniProt P08514 32-1039; P05106 27-718) (complex)” as the substance, how does the fold binding to γC390-411 with CCL5 (50 µg/mL, 1 mM Ca2+) over 1 mM Mn2+ alone read?
Its fold binding to γC390-411 with CCL5 (50 µg/mL, 1 mM Ca2+) over 1 mM Mn2+ alone is 4.5 fold.

What about the fold binding to γC390-411 with CXCL12 (50 µg/mL, 1 mM Ca2+) over 1 mM Mn2+ alone of the same substance?
Its fold binding to γC390-411 with CXCL12 (50 µg/mL, 1 mM Ca2+) over 1 mM Mn2+ alone is 3.5 fold.
